The text below walks through data of patent publication US20210072252A1 (WASHINGTON UNIVERSITY, published 2021).

The target in experiment [1] is peptide with N-terminal threonine. Nature of the experiment: biolayer interferometry (Blitz), peptide-coated sensor, NAAB in 1x PBS, 1:1 fit, kd/ka. (In general: BLI is a label-free optical method that tracks binding on a fibre tip over time.)
Experiment [2] deals with peptide with N-terminal valine. The experiment is described as above.
Experiment [3] deals with peptide with N-terminal asparagine. Described as above.
The target of experiment [4] is peptide with N-terminal glutamate. Described as above.
The target of experiment [5] is peptide with N-terminal serine. The experiment is described as above.
The target in experiment [6] is peptide with N-terminal lysine. Described as above.
The target in experiment [7] is synthetic peptide with N-terminal leucine (Example 1, on nanogel surface). Kind of experiment: single-molecule detection, TIRF microscopy; Cy5-labeled NAAB on peptide immobilized on nanogel; counts per field of view.
Protocol: The NAAB for N-terminal leucine amino acids was non-specifically labeled with Cy5 fluorophore on lysine side chains. […] An additional experiment was performed with no peptide added. The labeled NAAB was briefly incubated with the immobilized peptide, and unbound protein was removed by washing. Bound protein, which may be bound specifically to peptides or non-specifically to the surface, was imaged by total internal reflection fluorescence (TIRF) microscopy. Spots exceeding a detection threshold were deemed to indicate bound protein and were converted to a number of counts per field-of-view.
Experiment [8] addresses peptide with N-terminal isoleucine. Kind of experiment: biolayer interferometry (Blitz), peptide-coated sensor, NAAB in 1x PBS, 1:1 fit, kd/ka.
Experiment [9] has as its target peptide with N-terminal methionine (biolayer interferometry). The description is as above.
For experiment [10], the target named is peptide with N-terminal glutamine. The description is as above.
The target of experiment [11] is peptide with N-terminal arginine. The experiment is described as above.

B1: ThreNAAB (enzyme)
chain: RDHRKIGKQLDLYHMQEEAPGMVFWHNDGWTIFRELEVFVRSKLKEYQYQEVKGPFMMDRVLWEKTGHWDNYKDAMFTTSSENREYCIKPMNCPGHVQIFNQGLKSYRDLPLRMAEFGSCHRNEPSGSLHGLGRVRGFTQDDAHIFCTEEQIRDEVNGCIRLVYDMYSTFGFEKIVVKLSTRPEKRIGSDEMWDRAEADLAVALEENNIPFEYQLGEGAFYGPKIEFTLYDCLDRAAQCGTVQLDFSLPSRLSASYVGEDNERKVPVMIHRAILGSMEVFIGILTEEFAGFFPTWLAPVQVVIMNITDSQSEYVNELTQKLSNAGIRVKADLRNEKIGFKIREHTLRRVPYMLVCGDKEVESGKVAVRTRRGKDLGSMDVNEVIEKLQQEIRSRSLKQLEE
notes: Purified on GSTrap; also called Threonine
Consider B1, for which the equilibrium dissociation constant (Kd) in [1] came out at 1010 nM. That is a single-digit micromolar value.

B2: ValNAAB (enzyme)
chain: MEKTYNPQDIEQPLYEHWEKQGYFKPNGDESQESFCIMIPPPNVTGSLHMGHAFQQTIMDTMIRYQRMQGKNTLWQVGTDHAGIATQMVVERKIAAEEGKTRHDYGREAFIDKIWEWKAESGGTITRQMRRLGNSVDWERERFTMDEGLSNAVKEVFVRLYKEDLIYRGKRLVNWDPKLRTAISDLEVENRESKGSMWHIRYPLADGAKTADGKDYLVVATTRPETLLGDTGVAVNPEDPRYKDLIGKYVILPLVNRRIPIVGDEHADMEKGTGCVKITPAHDFNDYEVGKRHALPMINILTFDGDIRESAQVFDTKGNESDVYSSEIPAEFQKLERFAARKAVVAAIDALGLLEEIKPHDLTVPYGDRGGVVIEPMLTDQWYVRADVLAKPAVEAVENGDIQFVPKQYENMYFSWMRDIQDWCISRQLWWGHRIPAWYDEAGNVYVGRNEEEVRKENNLGADVALRQDEDVLDTWFSSALWTFSTLGWPENTDALRQFHPTSVMVSGFDIIFFWIARMIMMTMHFIKDENGKPQVPFHTVYMTGLIRDDEGQKMSKSKGNVIDPLDMVDGISLPELLEKRTGNMMQPQLADKIRKRTEKQFPNGIEPHGTDALRFTLAALASTGRDINWDMKRLEGYRNFCNKLWNASRFVLMNTEGQDCGFNGGEMTLSLADRWILAEFNQTIKAYREALDSFRFDIAAGILYEFTWNQFCDWYLELTKPVMNGGTEAELRGTRHTLVTVLEGLLRLAHPIIPFITETIWQ
notes: Purified on GSTrap; also called Valine
As for B2, the Kd in [2] is 1220 nM.

B3: AsnNAAB (enzyme)
chain: SIEYLREVAHLRPRTNLIGAVARVRHTLAQALHRFFNEQGFFWVSTPLITASDTEGAGEMFRVSTLDLENLPRNDQGKVDFDKDFFGKESFLTVSGQLNGETYACALSKIYTFGPTFRAENSNTSRHLAEFWMLEPEVAFANLNDIAGLAEAMLKYVFKAVLEERADDMKFFAERVDKDAVSRLERFIEADFAQVDYTDAVTILENCGRKFENPVYWGVDLSSEHERYLAEEHFKAPVVVKNYPKDIKAFYMRLNEDGKTVAAMDVLAPGIGEIIGGSQREERLDVLDERMLEMGLNKEDYWWYRDLRRYGTVPHSGFGLGFERLIAYVTGVQNVRDVIPFPRTP
notes: Purified on GSTrap; also called Asparagine
The molecule B3 showed a dissociation constant (Kd) in experiment [3] of 754 nM.

B4: GluNAAB (enzyme)
chain: IKTRFAPSPTGYLHVGGARTALYSWLFARNHGGEFVLRIEDTDLERSTPEAIEAIMDGMNWLSLEWDEGPYYQTKRFDRYNAVIDQMLEEGTAYKCYCSKERLEALREEQMAKGEKPRYDGRCRHSHEHHADDEPCVVRFANPQEGSVVFDDQIRGPIEFSNQELDDLIIRRTDGSPTYNFCVVVDDWDMEITHVIRGEDHINNTPRQINILKALNAPVPVYAHVSMINGDDGKKLSKRHGAVSVMQYRDDGYLPEALLNYLVRLGWSHGDQEIFTREEMIKYFTLNAVSKSASAFNTDKLLWLNHHYI
notes: also called Glutamate
In turn, B4 displayed a Kd in [4] of 2120 nM.

B5: SerNAAB (enzyme)
chain: MLDPNLLRNEPDAVAEKLARRGFKLDVDKLGALEERRKVLQVKTENLQAERNSRSKSIGQAKARGEDIEPLRLEVNKLGEELDAAKAELDALQAEIRDIALTIPNLPADEVPVGKDENDNVEVSRWGTPREFDFEVRDHVTLGEMYSGLDFAAAVKLTGSRFVVMKGQIARMHRALSQFMLDLHTEQHGYSENYVPYLVNQDTLYGTGQLPKFAGDLFHTRPLEEEADTSNYALIPTAEVPLTNLVRGEIIDEDDLPIKMTAHTPCFRSEAGSYGRDTRGLIRMHQFDKVEMVQIVRPEDSMAALEEMTGHAEKVLQLLGLPYRKIILCTGDMGFGACKTYDLEVWIPAQNTYREISSCSNVWDFQARRMQARCRSKSDKKTRLVHTLNGSGLAVGRTLVAVMENYQQADGRIEVPEVLRPYMNGLEYI
notes: Purified on GSTrap; also called Serine
For the molecule B5, the equilibrium dissociation constant (Kd) in experiment [5] worked out at 938 nM.

B6: LysNAAB (enzyme)
chain: ANDKSRQTFVVRSKILAAIRQFMVARGFMEVETPMMQVIPGGASARPFITHHNALDLDMYLRIAPELYLKRLVVGGFERVFEINRNFRNEGISVRHNPEFTMMELYMAYADYHDLIELTESLFRTLAQEVLGTTKVTYGEHVFDFGKPFEKLTMREAIKKYRPETDMADLDNFDAAKALAESIGITVEKSWGLGRIVTEIFDEVAEAHLIQPTFITEYPAEVSPLARRNDVNPEITDRFEFFIGGREIGNGFSELNDAEDQAERFQEQVNAKAAGDDEAMFYDEDYVTALEYGLPPTAGLGIGIDRMIMLFTNSHTIRDVILFPAMRP
notes: Purified on GSTrap; also called Lysine
B6 yielded a Kd in experiment [6] of 2610 nM. In other words, the single-digit micromolar range.

B7: eLAP, engineered leucine-specific aminopeptidase (NAAB for N-terminal leucine) (designed binder)
chain: MAISIKTPEDIEKMRVAGRLAAEVLEMIEPYVKPGVSTGELERICWDYIVNEQHATDSLTGHNGIDGHGSISINEVVCHGVPDDAKLLKDGDIVNIDVTVRKDGFHGDTSKMFIVGKPTIMGERLCRITQESLYLALRMVKPGINLREIGAAIQKFVEAEGFSVVREYCGHGIGRGHHEEPQVLHYDSRETNVVLKPGMTFTIEPMVNAGKKEIRTMKDGSTVKTKDRSLSAQYEHTIVVTDNGCEILTLRKDDTIPAIISHDE
modifications: Cy5 fluorophore non-specifically on lysine side chains
notes: also called NAAB for leucine
Regarding B7, in experiment [7], the “ratio of specific to non-specific binding” value was roughly 2 to 1.

B8: IleNAAB (enzyme)
chain: FPMRGDLAKREPGMLARWTDDDLYGIIRAAKKGKKTFILHDGPPYANGSIHIGHSVNKILKDIIIKSKGLSGYDSPYVPGWDCHGLPIELKVEQEYGKPGEKFTAAEFRAKCREYAATQVDGQRKDFIRLGVLGDWSHPYLTMDFKTEANIIRALGKIIGNGHLHKGAKPVHWCVDCRSALAEAEVEYYDKTSPSIVAFQAVDQDALKTKFGVSNVNGPISLVIWTTTPWTLPANRAISIAPDFDYALVQIDGQAVILAKDLVESMQRIGVSDYTILGTVKGAELELLRFTHPFMDFDVPAILGDHVTLDAGTGAVHTAPGHGPDDYVIGQKYGLETANPVGPDGTYLPGTYPTLDGVNVFKANDIVVALLQEKGALLHVEKMQHSYPCCWRHKTPIIFRATPQWFVSMDQKGLRAQSLKEIKGVQWIPDWGQARIESMVANRPDWCISRQRTWGVPMSLFVHKDTEELHPRTLELMEEVAKRVEVDGIQAWWDLDAKEILGDEADQYVKVPDTLDVWFDSGSTHSSVVDVRPEFAGHAADMYLEGSDQHRGWFMSSLMISTAMKGKAPYRQVLTHGFTVDGQGRKMSKSIGNTVSPQDVMNKLGADILRLWVASTDYTGEMAVSDEILKRAADSYRRIRNTARFLLANLNGFDPAKDMVKPEEMVVLDRWAVGCAKAAQEDILKAYEAYDFHEVVQRLMRFCSVEMGSFYLDIIKDRQYTAKADSVARRSCQTALYHIAEALVRWMAPILSFTADEVWGYLPGERE
notes: Purified on GSTrap; also called Isoleucine
In experiment [8], B8 yielded a dissociation constant Kd of 3010 nM.

B9: Met NAAB (as used in biolayer interferometry) (designed binder)
chain: AKKILVTCASPYANGSIHLGHMLEHIQADVWVRYQRMRGHEVNFICADDAHGTPIMLKAQQLGITPEQMIGEMSQEHQTDFAGFNISYDNYHSTHSEENRQLSELIYSRLKENGFIKNRTISQLYDPEKGMFLPDRFVKGTCPKCKSPDQYGDNCEVCGATYSPTELIEPKSVVSGATPVMRDSEHFFFDLPSFSEMLQAWTRSGALQEQVANKMQEWFESGLQQWDISRDAPYFGFEIPNAPGKYFYVWLDAPIGLMGSFKNLCDKRGDSVSFDEYWKKDSTAELYHFIGKGIVYFLSLFWPAMLEGSNFRKPSNLFVHGYVTVNGAKMSKSRGTFIKASTWLNHFDADSLRYYYTAKLSSRIDDIDLNLEDFVQRVNADIVNKVVNLASRNAGFINKRFDGVLASELADPQLYKTFTDAAEVIGEAWESREFGKAVREIMALADLANRYVDEQAPWVVAKQEGRDADLQAICSMGINLFRVLMTYLKPVLPKLTERAEAFLNTELTWDGIQQPLLGHKVNPFKALYNRIDMRQVEALVEASK
notes: Same engineered MetRS fragment as m5, here without stated Cy5 label; also called Methionine
In experiment [9], B9 came in with a Kd of 1070 nM.

B10: GlnNAAB (enzyme)
chain: TNFIRQIIDEDLASGKHTTVHTRFPPEPNGYLHIGHAKSICLNFGIAQDYKGQCNLRFDDTNPVKEDIEYVESIKNDVEWLGFHWSGNVRYSSDYFDQLHAYAIELINKGLAYVDELTPEQIREYRGTLTQPGKNSPYRDRSVEENLALFEKMRTGGFEEGKACLRAKIDMASPFIVMRDPVLYRIKFAEHHQTGNKWCIYPMYDFTHCISDALEGITHSLCTLEFQDNRRLYDWVLDNITIPVHPRQYEFSR
notes: Purified on GSTrap; also called Glutamine
As to B10, binding in experiment [10] was put at a Kd of 531 nM.

B11: ArgNAAB (enzyme)
chain: EKQTIVVDYSAPNVAKEMHVGHLRSTIIGDAAVRTLEFLGHKVIRANHVGDWGTQFGMLIAWLEKQQQENAGEMELADLEGFYRDAKKHYDEDEEFAERARNYVVKLQSGDEYFREMWRKLVDITMTQNQITYDRLNVTLTRDDVMGESLYNPMLPGIVADLKAKGLAVESEGATVVFLDEFKNKEGEPMGVIIQKKDGGYLYTTTDIACAKYRYESLHADRVLYYIDSRQHQHLMQAWAIVRKAGYVPESVPLEHHMFGMMLGKDGKPFKTRAGGTVKLADLLDETLERARRLVAEKNPDMPADELEKLANAVGIGAVKYADLSKNRTTDYIFDWDNMLAFEGNTAPYMQYAYTRVLSVFRKAEINEEQLAAAPVIIREDREAQLAARLLQFEETLTVVAREGTPHVMCAYLYDLAGLFSGFYEHCPILSAENEEVRNSRLKLAQLTAKTLKLGLDTLGIETVERM
notes: Purified on GSTrap; also called Arginine
In the case of B11, the Kd in experiment [11] came to 129 nM. This lies in the sub-micromolar range.

The term Kd denotes the equilibrium constant for the complex coming apart.
